Measurements published in patent US20260242478A1 (published 2026).
Where no end group is shown, it is not given here.

B1: Phage-2497 (peptide)
peptide: WPKLCTPPWMCTVD
modifications: cysteine pairing not given here; also: displayed on phage as fusion to pIII, pIII and linker sequence not given here
notes: not shown: fused to pIII of the bacteriophage
B2: Phage-2498 (peptide)
peptide: GEHWCIPAWMCEKM
modifications: cysteine pairing not given here; also: displayed on phage as fusion to pIII, pIII and linker sequence not given here
notes: as for B1
B3: Phage-2499 (peptide)
peptide: GEKWCIPEWMCQDV
modifications: cysteine pairing not given here; also: displayed on phage as fusion to pIII, pIII and linker sequence not given here
notes: as for B1
B4: Phage-2500 (peptide)
peptide: GTNWCKPDWMCVGL
modifications: cysteine pairing not given here; also: displayed on phage as fusion to pIII, pIII and linker sequence not given here
notes: as for B1
B5: Phage-2501 (peptide)
peptide: SDKWCIPVWMCEES
modifications: cysteine pairing not given here; also: displayed on phage as fusion to pIII, pIII and linker sequence not given here
notes: as for B1
B6: Phage-2502 (peptide)
peptide: EPKMCTPSWMCRGF
modifications: cysteine pairing not given here; also: displayed on phage as fusion to pIII, pIII and linker sequence not given here
notes: as for B1
B7: Phage-2503 (peptide)
peptide: SETWCIPAWMCLDG
modifications: cysteine pairing not given here; also: displayed on phage as fusion to pIII, pIII and linker sequence not given here
notes: as for B1
B8: Phage-2437 (peptide)
peptide: EMNWCIPAWMCEGR
B9: Phage-2438 (peptide)
peptide: EAKWCIPNWMCEMA
B10: Phage-2439 (peptide)
peptide: MPKWCTPSWMCAVQ
modifications: cysteine pairing not given here; also: displayed as fusion to phage pIII
B11: Phage-2440 (peptide)
peptide: PAKWCVPSWMCSEI
B12: Phage-2441 (peptide)
peptide: VVHWCTPAWMCYDM
B13: Phage-2442 (peptide)
peptide: LHKLCTPTWMCEGF
B14: Phage-2443 (peptide)
peptide: GAIWCIPQWMCAWN
modifications: cysteine pairing not given here; also: displayed as fusion to phage pIII
B15: Phage-2444 (peptide)
peptide: EVKWCIPAWMCVED
B16: Phage-2445 (peptide)
peptide: LERWCIPSWMCTED
B17: Phage-2446 (peptide)
peptide: YEKWCTPTWMCSWL
B18: Phage-2447 (peptide)
peptide: IEKWCTPPWMCLDH
B19: Phage-2448 (peptide)
peptide: ESKWCIPEWMCEQR
B20: Phage-2449 (peptide)
peptide: EEPWCIPSWMCALT
modifications: cysteine pairing not given here; also: displayed as fusion to phage pIII
B21: Phage-2450 (peptide)
peptide: VVKWCTPPWMCSVW
B22: Phage-2482 (peptide)
peptide: VVNWCTPAWMCSGF
modifications: cysteine pairing not given here; also: displayed on phage as fusion to pIII, pIII and linker sequence not given here
notes: Clonal phage of the peptide-180 library; not shown: pIII filament protein of the bacteriophage to which the peptide is fused
B23: Phage-2483 (peptide)
peptide: DSRWCIPDWMCELE
notes: as for B22
B24: Phage-2484 (peptide)
peptide: LVRWCVPEWMCAGM
modifications: cysteine pairing not given here; also: displayed on phage as fusion to pIII, pIII and linker sequence not given here
notes: as for B22
B25: Phage-2485 (peptide)
peptide: VSPLCKPDWMCNGF
notes: as for B22
B26: Phage-2486 (peptide)
peptide: FPHLCIPYWMCVRT
notes: as for B22
B27: Phage-2487 (peptide)
peptide: DYKWCTPIWMCAGD
modifications: cysteine pairing not given here; also: displayed on phage as fusion to pIII, pIII and linker sequence not given here
notes: as for B22
B28: Phage-2488 (peptide)
peptide: VSIWCIPPWMCVEK
notes: as for B22
B29: Phage-2489 (peptide)
peptide: WAKWCTPEWMCVVH
notes: as for B22
B30: Phage-2490 (peptide)
peptide: DFKWCTPPWMCDVF
notes: as for B22
B31: Phage-2491 (peptide)
peptide: SVKWCTPSWMCEHM
notes: as for B22
B32: Phage-2492 (peptide)
peptide: IEKMCIPAWMCTDK
notes: as for B22
B33: Phage-2493 (peptide)
peptide: MGNWCTPPWMCTGF
notes: as for B22
B34: Phage-2494 (peptide)
peptide: HFKMCVPPWMCLFD
notes: as for B22
B35: Phage-2495 (peptide)
peptide: LEKWCIPLWMCQTA
notes: as for B22
B36: Phage-2496 (peptide)
peptide: ESRLCIPAWMCESQ
notes: as for B22

Biological target: T1, 006 PSMA Fab (biotinylated (site not given))
T1 construct: Biotinylated PSMA Fab captured on neutravidin coated plates for the clonal phage ELISA; also called Anti-PSMA Fab
Experiment: clonal phage ELISA, biotinylated PSMA Fab on neutravidin plate, anti-M13 HRP detection;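 also: crude clonal phage supernatants added to wells pretreated with blocking buffer either with or without PSMA antigen, bound phage read after washing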

Row | Binder | Phage binding ELISA signal, Anti-PSMA Fab
1 | B1 | 1.21
2 | B2 | 1.21
3 | B3 | 1.21
4 | B4 | 1.21
5 | B5 | 1.21
6 | B6 | 1.2
7 | B7 | 1.2

Biological target: T1, 006 PSMA Fab
Experiment: clonal phage ELISA on plate-bound PSMA Fab, competitor: PSMA antigen pre-incubated in the wells
Method: (§1) Clonal phage were harvested as crude supernatants and screened via standard ELISAs. […] Prior to the addition of clonal phage. wells were incubated with blocking buffer and PSMA antigen or blocking buffer alone. Without washing or aspirating, clonal phage supernatants were then added to the wells and incubated for a short time. Wells were then washed followed by detection of bound phage using a horse radish conjugated anti-M13 antibody.

Row | Binder | Phage binding ELISA signal, Anti-PSMA Fab in presence of PSMA
8 | B1 | 0.0722
9 | B2 | 0.0615
10 | B3 | 0.0722
11 | B4 | 0.0855
12 | B5 | 0.0874
13 | B6 | 0.0691
14 | B7 | 0.0745

Biological target: T2, PSMA Fab (biotinylated (site not stated))
T2 construct: Biotinylated PSMA Fab captured on neutravidin plates in the phage ELISA; also called Anti-PSMA Fab; 006 PSMA Fab
Experiment: clonal phage ELISA; biotinylated PSMA Fab on neutravidin plate pre-incubated with PSMA antigen as competitor; anti-M13 HRP detection;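 also: crude clonal phage supernatants briefly incubated on wells preloaded with PSMA antigen in blocking buffer, or buffer only as control, bound phage detected with HRP-conjugated anti-M13 antibody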

Row | Binder | Phage binding ELISA signal, Anti-PSMA Fab in presence of PSMA
15 | B8 | 0.0633
16 | B9 | 0.0622
17 | B10 | 0.0845
18 | B11 | 0.0676
19 | B12 | 0.0623
20 | B13 | 0.0712
21 | B14 | 0.132
22 | B15 | 0.0892
23 | B16 | 0.0674
24 | B17 | 0.218
25 | B18 | 0.0663
26 | B19 | 0.0688
27 | B20 | 0.0689
28 | B21 | 0.104

Biological target: T3, 006 PSMA Fab
T3 construct: also called Anti-PSMA Fab; anti-PSMA Fab
Experiment: phage ELISA: biotinylated PSMA Fab on neutravidin plate pre-incubated with PSMA antigen (competitor), clonal phage supernatant, anti-M13-HRP detection
Method: as §1

Row | Binder | phage binding ELISA signal in presence of PSMA antigen
29 | B22 | 0.0652
30 | B23 | 0.0935
31 | B24 | 0.0945
32 | B25 | 0.0787
33 | B26 | 0.198
34 | B27 | 0.0707
35 | B28 | 0.101
36 | B29 | 0.15
37 | B30 | 0.0763
38 | B31 | 0.0739
39 | B32 | 0.0698
40 | B33 | 0.0704
41 | B34 | 0.101
42 | B35 | 0.0777
43 | B36 | 0.0772

Biological target: T2, PSMA Fab
Experiment: clonal phage ELISA; biotinylated PSMA Fab on neutravidin plate; anti-M13 HRP detection; blocking buffer alone
Method: as §1

Row | Binder | Phage binding ELISA signal, Anti-PSMA Fab
44 | B8 | 1.31
45 | B9 | 1.31
46 | B10 | 1.31
47 | B11 | 1.31
48 | B12 | 1.3
49 | B13 | 1.3
50 | B14 | 1.3
51 | B15 | 1.3
52 | B16 | 1.3
53 | B17 | 1.29
54 | B18 | 1.29
55 | B19 | 1.29
56 | B20 | 1.29
57 | B21 | 1.29

Biological target: T3, 006 PSMA Fab
Experiment: phage ELISA: biotinylated PSMA Fab on neutravidin plate, clonal phage supernatant, anti-M13-HRP detection; blocking buffer alone
Method: as §1

Row | Binder | phage binding ELISA signal
58 | B22 | 1.23
59 | B23 | 1.23
60 | B24 | 1.22
61 | B25 | 1.22
62 | B26 | 1.22
63 | B27 | 1.22
64 | B28 | 1.22
65 | B29 | 1.22
66 | B30 | 1.22
67 | B31 | 1.22
68 | B32 | 1.22
69 | B33 | 1.22
70 | B34 | 1.22
71 | B35 | 1.22
72 | B36 | 1.22
